T1: FcγRIIb extracellular domain with C-terminal His tag (human, UniProt P31994 43-217)
T1 construct: extracellular domain; also called FcgRIIb; 2b; not shown: His tag at the C terminus
T1 sequence (looked up): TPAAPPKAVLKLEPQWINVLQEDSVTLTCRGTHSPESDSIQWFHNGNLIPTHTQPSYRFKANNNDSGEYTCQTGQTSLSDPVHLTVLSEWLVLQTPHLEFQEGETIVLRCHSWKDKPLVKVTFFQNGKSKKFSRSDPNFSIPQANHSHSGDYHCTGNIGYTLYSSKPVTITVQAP

B1: GpH7-A5/GpH7-B3 variant A327_18N/GpL16-k0 (antibody, human IgG1, kappa)
heavy 1: not shown
heavy 2: not shown
light: DIVMTQSPLSLPVTPGEPASISCQASESLVHSNRNTYLHWYLQKPGQSPQLLIYKVSNRFSGVPDRFSGSGSGTDFTLKISRVEAEDVGVYYCSQNTHVPPTFGQGTKVEIERTVAAPSVFIFPPSDEQLKSGTASVVCLLNNFYPREAKVQWKVDNALQSGNSQESVTEQDSKDSTYSLSSTLTLSKADYEKHKVYACEVTHQGLSSPVTKSFNRGEC
notes: Heterodimerized IgG1 antibody; alteration in the GpH7-B3 chain only; also called He Ab
B2: GpH7-A5/GpH7-B3 variant N325_05P/GpL16-k0 (antibody, human IgG1, kappa)
heavy 1: not shown
heavy 2: not shown
light: B1 light
notes: as for B1
B3: GpH7-A5/GpH7-B3 variant L328_01G/GpL16-k0 (antibody, human IgG1, kappa)
heavy 1: not shown
heavy 2: not shown
light: B1 light
notes: as for B1
B4: GpH7-A5/GpH7-B3 variant N325_09D/GpL16-k0 (antibody, human IgG1, kappa)
heavy 1: not shown
heavy 2: not shown
light: B1 light
notes: as for B1
B5: GpH7-A5/GpH7-B3 variant N325_15Y/GpL16-k0 (antibody, human IgG1, kappa)
heavy 1: not shown
heavy 2: not shown
light: B1 light
notes: as for B1
B6: GpH7-A5/GpH7-B3 variant K326_15Y/GpL16-k0 (antibody, human IgG1, kappa)
heavy 1: not shown
heavy 2: not shown
light: B1 light
notes: as for B1
B7: GpH7-A5/GpH7-B3 variant N325_06M/GpL16-k0 (antibody, human IgG1, kappa)
heavy 1: not shown
heavy 2: not shown
light: B1 light
notes: as for B1
B8: GpH7-A5/GpH7-B3 variant K326_19Q/GpL16-k0 (antibody, human IgG1, kappa)
heavy 1: not shown
heavy 2: not shown
light: B1 light
notes: as for B1
B9: GpH7-A5/GpH7-B3 variant A327_20W/GpL16-k0 (antibody, human IgG1, kappa)
heavy 1: not shown
heavy 2: not shown
light: B1 light
notes: as for B1
B10: GpH7-A5/GpH7-B3 variant N325_20W/GpL16-k0 (antibody, human IgG1, kappa)
heavy 1: not shown
heavy 2: not shown
light: B1 light
notes: as for B1
B11: GpH7-A5/GpH7-B3 variant K326_20W/GpL16-k0 (antibody, human IgG1, kappa)
heavy 1: not shown
heavy 2: not shown
light: B1 light
notes: as for B1
B12: GpH7-A5/GpH7-B3 variant N325_02A/GpL16-k0 (antibody, human IgG1, kappa)
heavy 1: not shown
heavy 2: not shown
light: B1 light
notes: as for B1
B13: GpH7-A5/GpH7-B3 variant N325_19Q/GpL16-k0 (antibody, human IgG1, kappa)
heavy 1: not shown
heavy 2: not shown
light: B1 light
notes: as for B1
B14: GpH7-A5/GpH7-B3 variant K326_06M/GpL16-k0 (antibody, human IgG1, kappa)
heavy 1: not shown
heavy 2: not shown
light: B1 light
notes: as for B1
B15: GpH7-A5/GpH7-B3 variant L328_05P/GpL16-k0 (antibody, human IgG1, kappa)
heavy 1: not shown
heavy 2: not shown
light: B1 light
notes: as for B1
B16: GpH7-A5/GpH7-B3 variant L328_02A/GpL16-k0 (antibody, human IgG1, kappa)
heavy 1: not shown
heavy 2: not shown
light: B1 light
notes: as for B1
B17: GpH7-A5/GpH7-B3 variant K326_04F/GpL16-k0 (antibody, human IgG1, kappa)
heavy 1: not shown
heavy 2: not shown
light: B1 light
notes: as for B1
B18: GpH7-A5/GpH7-B3 variant L328_04F/GpL16-k0 (antibody, human IgG1, kappa)
heavy 1: not shown
heavy 2: not shown
light: B1 light
notes: as for B1
B19: GpH7-A5/GpH7-B3 variant N325_14T/GpL16-k0 (antibody, human IgG1, kappa)
heavy 1: not shown
heavy 2: not shown
light: B1 light
notes: as for B1
B20: GpH7-A5/GpH7-B3 variant K326_07I/GpL16-k0 (antibody, human IgG1, kappa)
heavy 1: not shown
heavy 2: not shown
light: B1 light
notes: as for B1
B21: GpH7-A5/GpH7-B3 variant K326_10E/GpL16-k0 (antibody, human IgG1, kappa)
heavy 1: not shown
heavy 2: not shown
light: B1 light
notes: as for B1
B22: GpH7-A5/GpH7-B3 variant N325_08L/GpL16-k0 (antibody, human IgG1, kappa)
heavy 1: not shown
heavy 2: not shown
light: B1 light
notes: as for B1
B23: GpH7-A5/GpH7-B3 variant N325_04F/GpL16-k0 (antibody, human IgG1, kappa)
heavy 1: not shown
heavy 2: not shown
light: B1 light
notes: as for B1
B24: GpH7-A5/GpH7-B3 variant K326_03V/GpL16-k0 (antibody, human IgG1, kappa)
heavy 1: not shown
heavy 2: not shown
light: B1 light
notes: as for B1
B25: GpH7-A5/GpH7-B3 variant N325_11K/GpL16-k0 (antibody, human IgG1, kappa)
heavy 1: not shown
heavy 2: not shown
light: B1 light
notes: as for B1
B26: GpH7-A5/GpH7-B3 variant K326_08L/GpL16-k0 (antibody, human IgG1, kappa)
heavy 1: not shown
heavy 2: not shown
light: B1 light
notes: as for B1
B27: GpH7-A5/GpH7-B3 variant L328_03V/GpL16-k0 (antibody, human IgG1, kappa)
heavy 1: not shown
heavy 2: not shown
light: B1 light
notes: as for B1
B28: GpH7-A5/GpH7-B3 variant N325_13S/GpL16-k0 (antibody, human IgG1, kappa)
heavy 1: not shown
heavy 2: not shown
light: B1 light
notes: as for B1
B29: GpH7-A5/GpH7-B3 variant K326_09D/GpL16-k0 (antibody, human IgG1, kappa)
heavy 1: not shown
heavy 2: not shown
light: B1 light
notes: as for B1
B30: GpH7-A5/GpH7-B3 variant N325_07I/GpL16-k0 (antibody, human IgG1, kappa)
heavy 1: not shown
heavy 2: not shown
light: B1 light
notes: as for B1
B31: GpH7-A5/GpH7-B3 variant N325_03V/GpL16-k0 (antibody, human IgG1, kappa)
heavy 1: not shown
heavy 2: not shown
light: B1 light
notes: as for B1
B32: GpH7-A5/GpH7-B3 variant N325_10E/GpL16-k0 (antibody, human IgG1, kappa)
heavy 1: not shown
heavy 2: not shown
light: B1 light
notes: as for B1

Experiments:
[1] = molecular target: T1, FcγRIIb extracellular domain with …; assay: SPR (Biacore), FcγR as analyte over captured antibody; GpH7-A5/GpH7-B3/GpL16-k0 = 100
Description: (§1) The heterodimerized antibodies He Abs in which one of the H chains was introduced with an alteration were assayed for their binding activities to each activating FcγR and inhibitory FcγR according to the method described in Example 4. […] The activating FcγRs in FIGS. 26, 27, 28, and 29 are FcγRIa, FcγRIIa (R), FcγRIIa (H), and FcγRIIIa, respectively.
(§2) Analysis of interaction between objective antibody and the FcγR was carried out using Biacore T100 (GE Healthcare). HBS-EP+ (GE Healthcare) was used as the running buffer, and the measurement temperature was set to 25° C. Chips produced by immobilizing the antigen peptide by the amine coupling method to a Series S Sencor Chip CM5 (GE Healthcare), or alternatively, chips produced by allowing preliminarily biotinylated antigen peptides to interact with and immobilize onto a Series S Sensor Chip SA (certified) (GE Healthcare) were used. Antibodies of interest were captured onto an antigen peptide-immobilized chip, and allowed to interact to each FcγR diluted with running buffer. To regenerate and repeatedly use the chip, the antibodies captured on the chip were washed off by reacting 10 mM glycine-HCl, pH 1.5.

[2] = molecular target: T2, FcγRIIIa extracellular domain with C-terminal His tag (human, UniProt P08637 17-208); assay: as above
T2 construct: extracellular domain; also called FcgRIIIa; 3a; not shown: His tag at the C terminus
T2 sequence (P08637 17-208): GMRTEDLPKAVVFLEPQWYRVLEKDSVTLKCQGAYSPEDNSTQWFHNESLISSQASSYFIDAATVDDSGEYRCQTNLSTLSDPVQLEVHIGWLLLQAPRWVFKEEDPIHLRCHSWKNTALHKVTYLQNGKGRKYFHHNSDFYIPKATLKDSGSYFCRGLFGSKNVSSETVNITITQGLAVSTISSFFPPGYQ
Description: as §1, §2

[3] = molecular target: T2, FcγRIIIa extracellular domain with …; assay: SPR (Biacore); He/Con_3a divided by He/Con_2b (FcγRIIb)

Row | Binder | He/Con_2b [1] | He/Con_3a [2] | He_3a/2b (IIIa/IIb) [3]
1 | B1 | 113 % of control | 61.1 % of control | 0.54 ratio
2 | B2 | 26 % of control | 10.2 % of control | 0.39 ratio
3 | B3 | 80.2 % of control | 44.9 % of control | 0.56 ratio
4 | B4 | 124 % of control | 48 % of control | 0.39 ratio
5 | B5 | 99.5 % of control | 29.5 % of control | 0.3 ratio
6 | B6 | 159 % of control | 112 % of control | 0.7 ratio
7 | B7 | 217 % of control | 31.4 % of control | 0.14 ratio
8 | B8 | 139 % of control | 106 % of control | 0.76 ratio
9 | B9 | 78.8 % of control | 51.2 % of control | 0.65 ratio
10 | B10 | 169 % of control | 32.8 % of control | 0.19 ratio
11 | B11 | 148 % of control | 84.8 % of control | 0.57 ratio
12 | B12 | 64.4 % of control | 30.5 % of control | 0.47 ratio
13 | B13 | 69.1 % of control | 31.6 % of control | 0.46 ratio
14 | B14 | 165 % of control | 115 % of control | 0.7 ratio
15 | B15 | 65.1 % of control | 40.5 % of control | 0.62 ratio
16 | B16 | 144 % of control | 79.1 % of control | 0.55 ratio

Row | Binder | He/Con_2b [1] | He/Con_3a [2] | He_3a/2b (IIIa/IIb) [3]
17 | B17 | 155 % of control | 103 % of control | 0.66 ratio
18 | B18 | 219 % of control | 79.3 % of control | 0.36 ratio
19 | B19 | 91.6 % of control | 39.4 % of control | 0.43 ratio
20 | B20 | 199 % of control | 139 % of control | 0.7 ratio
21 | B21 | 200 % of control | 124 % of control | 0.62 ratio
22 | B22 | 197 % of control | 33.3 % of control | 0.17 ratio
23 | B23 | 143 % of control | 20.7 % of control | 0.14 ratio
24 | B24 | 175 % of control | 122 % of control | 0.7 ratio
25 | B25 | 10.4 % of control | 5.2 % of control | 0.5 ratio
26 | B26 | 177 % of control | 114 % of control | 0.65 ratio
27 | B27 | 126 % of control | 78.7 % of control | 0.63 ratio
28 | B28 | 177 % of control | 65.1 % of control | 0.37 ratio
29 | B29 | 193 % of control | 134 % of control | 0.69 ratio
30 | B30 | 171 % of control | 28.7 % of control | 0.17 ratio
31 | B31 | 111 % of control | 30.3 % of control | 0.27 ratio
32 | B32 | 95.9 % of control | 38.2 % of control | 0.4 ratio

From patent publication US20150344570A1 (published 2015)
